Source: article doi:10.1101/2020.09.13.295485

Molecular target: His-GB1-tagged C-domain of CRT_(Del52) (human) (UniProt P27797)
Experiment: non-reducing SDS-PAGE with immunoblot

- stoichiometry N: 2
Substance: His-GB1-tagged C-domain of CRT_(Del52) (from UniProt P27797 357-366) (domain or fragment)
